From patent EP4768039A1, “PHARMACEUTICAL COMPOSITION AND USE THEREOF” (Shanghai Regenelead Therapies Co., Ltd., priority 2023, dated 2025)

System: not given
Experiment: not given
Conditions: pH range of the buffer system; cited from earlier work

Compound	Buffering range
NC(CO)(CO)CO [Tris]	7.0-9.2
OCC(CO)(CO)NCCCNC(CO)(CO)CO [BTP, bis-tris propane]	6.3-9.5
O=S(=O)(O)CCN1CCN(CCO)CC1 [HEPES, N-2-hydroxyethylpiperazine-N'-2-ethanesulfonic acid]	6.8-8.2

Target: Human VEGF-A protein (human) (UniProt P15692)
Experiment: cell-based or functional assay
Conditions: not given

Chain of UniProt P15692 (P15692 other isoform, or with tags, fused parts or gaps limits assumed): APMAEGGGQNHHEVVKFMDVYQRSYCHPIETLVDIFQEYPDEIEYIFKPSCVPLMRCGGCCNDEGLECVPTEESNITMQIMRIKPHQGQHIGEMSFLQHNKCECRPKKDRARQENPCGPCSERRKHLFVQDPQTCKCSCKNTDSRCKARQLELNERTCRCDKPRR

Compound	VEGF-A IC50 (nM); VEGF-A-induced NFAT-RE Luc2P KDR reporter cells [nM]
PR1146(R1D2-R2D3-linker-R2D2(C162V)-R2D3(L289Y)-Fc) (from UniProt P01857 104-330) (Fc fusion)	0.98
PR1169(R1D2-R2D3-R2D2(C162V/Y221S/R222K)-R2D3(S283T)-Fc) (Fc fusion)	0.9
PR1136(R1D2-R2D3-linker-R2D2-R2D3(L313R)-Fc) (from UniProt P01857 104-330) (Fc fusion)	0.14
PR1114(R1D2-R2D3-linker-R2D2-R2D3(N274I)-Fc) (from UniProt P01857 104-330) (Fc fusion)	0.36
PR1168(R1D2-R2D3-R2D2(C162V/Y221S/R222K)-R2D3(N274F)-Fc) (Fc fusion)	1.15
PR1126(R1D2-R2D3-linker-R2D2-R2D3(F288Y)-Fc) (from UniProt P01857 104-330) (Fc fusion)	0.7
PR1150(R1D2-R2D3-linker-R2D2(C162V)-R2D3(L313R)-Fc) (from UniProt P01857 104-330) (Fc fusion)	0.81
PR1120(R1D2-R2D3-linker-R2D2-R2D3(K278D)-Fc) (from UniProt P01857 104-330) (Fc fusion)	0.38
PR1165(R1D2-R2D3-linker-R2D2(C162I)-R2D3-Fc) (from UniProt P01857 104-330) (Fc fusion)	0.92
PR1094(R1D2-R2D3-linker-R2D2(C162V)-R2D3-Fc) (from UniProt P01857 104-330) (Fc fusion)	0.34
PR1109(R1D2-R2D3-linker-R2D2(V219I)-R2D3-Fc) (from UniProt P01857 104-330) (Fc fusion)	0.18
PR1167(R1D2-R2D3-R2D2(C162V)-R2D3(N274F/S283T)-Fc) (Fc fusion)	1.1
PR1142(R1D2-R2D3-linker-R2D2(C162V)-R2D3(N274I)-Fc) (from UniProt P01857 104-330) (Fc fusion)	0.99
PR1123(R1D2-R2D3-linker-R2D2-R2D3(Q280E)-Fc) (from UniProt P01857 104-330) (Fc fusion)	0.21
PR1122(R1D2-R2D3-linker-R2D2-R2D3(K278E)-Fc) (from UniProt P01857 104-330) (Fc fusion)	0.36
PR1147(R1D2-R2D3-linker-R2D2(C162V)-R2D3(L313Y)-Fc) (from UniProt P01857 104-330) (Fc fusion)	1.16

Results, then the compound that gave them:

VEGF-A IC50 (nM); VEGF-A-induced NFAT-RE Luc2P KDR reporter cells [nM]	Compound
1.08	PR1173(R1D2-R2D3-linker-R2D2(C162V/Y221S/R222K)-R2D3(S283T)-Fc) (from UniProt P01857 104-330) (Fc fusion)
0.89	PR1170(R1D2-R2D3-R2D2(C162V/Y221S/R222K)-R2D3(N274F/S283T)-Fc) (Fc fusion)
1.12	PR1166(R1D2-R2D3-linker-R2D2(C162L)-R2D3-Fc) (from UniProt P01857 104-330) (Fc fusion)
0.92	PR1172(R1D2-R2D3-linker-R2D2(C162V/Y221S/R222K)-R2D3(N274F)-Fc) (from UniProt P01857 104-330) (Fc fusion)
2.71	PR1010(R1D2-R2D3-linker-R2D2-R2D3-Fc) (from UniProt P01857 104-330) (Fc fusion)
0.82	PR1149(R1D2-R2D3-linker-R2D2(C162V/Y221S/R222K)-R2D3-Fc) (from UniProt P01857 104-330) (Fc fusion)
0.23	PR1125(R1D2-R2D3-linker-R2D2-R2D3(E284H)-Fc) (from UniProt P01857 104-330) (Fc fusion)
1.14	PR1141(R1D2-R2D3-linker-R2D2(C162V)-R2D3(N274F)-Fc) (from UniProt P01857 104-330) (Fc fusion)
0.14	PR1119(R1D2-R2D3-linker-R2D2-R2D3(L277R)-Fc) (from UniProt P01857 104-330) (Fc fusion)
1.09	PR1171(R1D2-R2D3-linker-R2D2(C162V)-R2D3(N274F/S283T)-Fc) (from UniProt P01857 104-330) (Fc fusion)
0.84	PR1143(R1D2-R2D3-linker-R2D2(C162V)-R2D3(R275L)-Fc) (from UniProt P01857 104-330) (Fc fusion)
0.28	PR1115(R1D2-R2D3-linker-R2D2-R2D3(R275L)-Fc) (from UniProt P01857 104-330) (Fc fusion)
0.67	PR1129(R1D2-R2D3-linker-R2D2-R2D3(M314S)-Fc) (from UniProt P01857 104-330) (Fc fusion)
0.29	PR1124(R1D2-R2D3-linker-R2D2-R2D3(S283T)-Fc) (from UniProt P01857 104-330) (Fc fusion)
1.49	PR1148(R1D2-R2D3-linker-R2D2(C162V)-R2D3(L277R/L289Y)-Fc) (from UniProt P01857 104-330) (Fc fusion)
0.22	PR1118(R1D2-R2D3-linker-R2D2-R2D3(D276Q)-Fc) (from UniProt P01857 104-330) (Fc fusion)

System: not listed separately
Experiment: Temperature sensitivity of pH of different buffers
Format: physicochemical
Conditions: buffer working solutions, 2 °C to 30 °C; FIG. 17
Protocol: • 1. About 3 mL of each of different buffers was added to a centrifuge tube. The pH value in the process of cooling from 30 °C to about 2 °C was measured with a pH meter in an ice-water bath and recorded, and then the pH change in the process of heating the solution from 2 °C to 30 °C was recorded. Table 30. Buffering ranges of different buffers

pH decrease as the temperature increased by 1 °C	Compound
about 0.024	NC(CO)(CO)CO [Tris]
about 0.024	OCC(CO)(CO)NCCCNC(CO)(CO)CO [BTP, bis-tris propane]
about 0.001	O=S(=O)(O)CCN1CCN(CCO)CC1 [HEPES, N-2-hydroxyethylpiperazine-N'-2-ethanesulfonic acid]
